According to publication PMC3213134, “A Non-Motor Microtubule Binding Site Is Essential for the High Processivity and Mitotic Function of Kinesin-8 Kif18A” (PLoS ONE, 2011):

B1: His-Kif18A^FL-GFP (natural protein, human, UniProt Q8NI77 1-898, looked up)
chain: MSVTEEDLCHHMKVVVRVRPENTKEKAAGFHKVVHVVDKHILVFDPKQEEVSFFHGKKTTNQNVIKKQNKDLKFVFDAVFDETSTQSEVFEHTTKPILRSFLNGYNCTVLAYGATGAGKTHTMLGSADEPGVMYLTMLHLYKCMDEIKEEKICSTAVSYLEVYNEQIRDLLVNSGPLAVREDTQKGVVVHGLTLHQPKSSEEILHLLDNGNKNRTQHPTDMNATSSRSHAVFQIYLRQQDKTASINQNVRIAKMSLIDLAGSERASTSGAKGTRFVEGTNINRSLLALGNVINALADSKRKNQHIPYRNSKLTRLLKDSLGGNCQTIMIAAVSPSSVFYDDTYNTLKYANRAKDIKSSLKSNVLNVNNHITQYVKICNEQKAEILLLKEKLKAYEEQKAFTNENDQAKLMISNPQEKEIERFQEILNCLFQNREEIRQEYLKLEMLLKENELKSFYQQQCHKQIEMMCSEDKVEKATGKRDHRLAMLKTRRSYLEKRREEELKQFDENTNWLHRVEKEMGLLSQNGHIPKELKKDLHCHHLHLQNKDLKAQIRHMMDLACLQEQQHRQTEAVLNALLPTLRKQYCTLKEAGLSNAAFESDFKEIEHLVERKKVVVWADQTAEQPKQNDLPGISVLMTFPQLGPVQPIPCCSSSGGTNLVKIPTEKRTRRKLMPSPLKGQHTLKSPPSQSVQLNDSLSKELQPIVYTPEDCRKAFQNPSTVTLMKPSSFTTSFQAISSNINSDNCLKMLCEVAIPHNRRKECGQEDLDSTFTICEDIKSSKCKLPEQESLPNDNKDILQRLDPSSFSTKHSMPVPSMVPSYMAMTTAAKRKRKLTSSTSNSSLTADVNSGFAKRVRQDNSSEKHLQENKPTMEHKRNICKINPSMVRKFGRNISKGNLR
notes: also called full-length Kif18A^FL-GFP; not shown: His6, N-terminal, kept; GFP, C-terminal, kept
B2: His-Kif18A^1-777-GFP (domain or fragment, human, UniProt Q8NI77 1-777, looked up)
chain: MSVTEEDLCHHMKVVVRVRPENTKEKAAGFHKVVHVVDKHILVFDPKQEEVSFFHGKKTTNQNVIKKQNKDLKFVFDAVFDETSTQSEVFEHTTKPILRSFLNGYNCTVLAYGATGAGKTHTMLGSADEPGVMYLTMLHLYKCMDEIKEEKICSTAVSYLEVYNEQIRDLLVNSGPLAVREDTQKGVVVHGLTLHQPKSSEEILHLLDNGNKNRTQHPTDMNATSSRSHAVFQIYLRQQDKTASINQNVRIAKMSLIDLAGSERASTSGAKGTRFVEGTNINRSLLALGNVINALADSKRKNQHIPYRNSKLTRLLKDSLGGNCQTIMIAAVSPSSVFYDDTYNTLKYANRAKDIKSSLKSNVLNVNNHITQYVKICNEQKAEILLLKEKLKAYEEQKAFTNENDQAKLMISNPQEKEIERFQEILNCLFQNREEIRQEYLKLEMLLKENELKSFYQQQCHKQIEMMCSEDKVEKATGKRDHRLAMLKTRRSYLEKRREEELKQFDENTNWLHRVEKEMGLLSQNGHIPKELKKDLHCHHLHLQNKDLKAQIRHMMDLACLQEQQHRQTEAVLNALLPTLRKQYCTLKEAGLSNAAFESDFKEIEHLVERKKVVVWADQTAEQPKQNDLPGISVLMTFPQLGPVQPIPCCSSSGGTNLVKIPTEKRTRRKLMPSPLKGQHTLKSPPSQSVQLNDSLSKELQPIVYTPEDCRKAFQNPSTVTLMKPSSFTTSFQAISSNINSDNCLKMLCEVAIPHNRRKECGQEDLDSTFTICEDIK
notes: not shown: His6, N-terminal, kept; GFP, C-terminal, kept

Target: the molecule itself
Test: photobleaching step counting (TIRF microscopy, streaming mode); single GFP-tagged motors moving on immobilised microtubules, ATP reduced to 15 µM, 100 ms exposure for 1200 frames; only one and two step bleaching events seen

Row | Protein | stoichiometry N
1 | B1 | 2
2 | B2 | 2
